The test concerns the target V1.1. The experiment in a line: SPR.

B1: CFH (fH67) (other)
chain: TLKPCDYPDIKHGGLYHENMRRPYFPVAVGKYYSYYCDEHFETPSGSYWDHIHCTQDGWSPAVPCLRKCYFPYLENGYNQNYGRKFVQGKSIDVACHPGYALPKAQTTVTCMENGWSPTPRCI
As to B1, the Kd (commonly the constant that tells how readily two partners part at equilibrium) came to 3.6 nM.

The record behind these values is patent publication US20220112249A1 (published 2022).
